# Results published in patent US20250257133A1 (ADAGENE PTE, published 2025).
# Changes are numbered by the printed parent chain. Numbers in names are those of the source.
# T1: B7H3 on MDA-MB-231 cells (UniProt Q5ZPR3 29-534, limits assumed)
# T1 construct: whole, on cells
# T1 sequence (looked up): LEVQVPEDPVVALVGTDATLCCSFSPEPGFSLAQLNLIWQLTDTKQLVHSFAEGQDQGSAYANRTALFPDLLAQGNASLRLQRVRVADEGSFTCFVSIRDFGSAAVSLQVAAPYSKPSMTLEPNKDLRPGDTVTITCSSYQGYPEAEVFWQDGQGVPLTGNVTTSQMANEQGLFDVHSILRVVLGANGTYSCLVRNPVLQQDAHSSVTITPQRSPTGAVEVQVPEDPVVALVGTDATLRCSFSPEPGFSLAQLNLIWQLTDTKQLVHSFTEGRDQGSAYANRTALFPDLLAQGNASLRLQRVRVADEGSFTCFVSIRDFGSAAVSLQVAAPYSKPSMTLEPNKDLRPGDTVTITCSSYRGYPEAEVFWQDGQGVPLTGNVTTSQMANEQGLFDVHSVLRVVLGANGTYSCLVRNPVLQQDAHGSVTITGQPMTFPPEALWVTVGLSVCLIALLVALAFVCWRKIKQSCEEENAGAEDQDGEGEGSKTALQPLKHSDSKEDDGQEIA
# B1: TY29021 (bispecific antibody, human IgG1, kappa, N297A)
# light: DIQLTQSPSSLSASVGDRVTITCRASQSIRKYLNWYQQKPGKAPKLLIYAASTLQSGVPSRFSGSGSGTDFTLTISSLQPEDFATYFCSQGTHVPFTFGQGTKVEIKRTVAAPSVFIFPPSDEQLKSGTASVVCLLNNFYPREAKVQWKVDNALQSGNSQESVTEQDSKDSTYSLSSTLTLSKADYEKHKVYACEVTHQGLSSPVTKSFNRGEC
# heavy: EVQLVESGGGLVQPGGSLRLSCAASGFTFSGYGIHWVRQAPGKGLEWIGWISPSGGDTKYAQKFQGRVTISRDNSKNTLYLQLNSLRAEDTAVYYCARGGTVVYFDYWGQGTLVTVSSASTKGPSVFPLAPSSKSTSGGTAALGCLVKDYFPEPVTVSWNSGALTSGVHTFPAVLQSSGLYSLSSVVTVPSSSLGTQTYICNVNHKPSNTKVDKKVEPKSCDKTHTCPPCPAPELLGGPSVFLFPPKPKDTLMISRTPEVTCVVVDVSHEDPEVKFNWYVDGVEVHNAKTKPREEQYASTYRVVSVLTVLHQDWLNGKEYKCKVSNKALPAPIEKTISKAKGQPREPQVYTLPPSRKKLTKNQVKLTCLVKGFYPSDIAVEWESNGQPENNYKTTPPVLDCDGSFFLYSKLTVDKSRWQQGNVFSCSVMHEALHNHYTQKSLSLSPGK
# chain: EVQLVESGGGLVQPGGSLRLSCAASGFSLSTGGVGVSWIRQAPGKGLEWIGEIYHSGSTYYSPSLKSRVTISRDNSKNTLYLQLNSLRAEDTAVYYCARYEYYYYDFDYWGQGTLVTVSSGGGGSGGGGSGGGGSGGGGSDIQLTQSPSSLSASVGDRVTITCRASQSVDFHGISFLHWYQQKPGKAPKLLIYAASSLQSGVPSRFSGSGSGTDFTLTISSLQPEDFATYYCQQSYRSPRTFGQGTKVEIKEPKSSDKTHTCPPCPAPELLGGPSVFLFPPKPKDTLMISRTPEVTCVVVDVSHEDPEVKFNWYVDGVEVHNAKTKPREEQYASTYRVVSVLTVLHQDWLNGKEYKCKVSNKALPAPIEKTISKAKGQPREPQVYTDPPSRDELTKNQVSLTCLVDGFYPSDIAVEWESNGQPENCYKTTPPVLDSDGSFFLYSKLTVDKSRWQQGNVFSCSVMHEALHNHYTQDSLSLSPGK
# notes: anti-B7H3 Fab x CD28 scFv WT (VH-VL)-Fc; also called TY29021 (WT)
# B2: TY24878 (antibody, human IgG4 S228P, kappa, V domains shown)
# VH: QVQLVQSGAEVKKPGSSVKVSCKASGFSLSTGGVAVAWIRQAPGQGLEWIGQIYYSGSTYYNPSLKSRVTITADKSTSTAYMELSSLRSEDTAVYYCARSSAHYYFDVWGQGTLVTVSS
# VL: DIQLTQSPSSLSASVGDRVTITCRASESVDFQGISFLDWYQQKPGKAPKLLIYDASSLESGVPSRFSGSGSGTDFTLTISSLQPEDFATYYCQQSYRSPITFGQGTKVEIKR
# notes: hIgG4/S241P
# B3: TY24869 (antibody, human IgG4 S228P, kappa, V domains shown)
# VH: QVQLVQSGAEVKKPGSSVKVSCKASGYSISSGYHWGWIRQAPGQGLEWIGAIYHSGSTYYSPSLKSRVTITADKSTSTAYMELSSLRSEDTAVYYCARSGLVYYAFDYWGQGTLVTVSS
# VL: DIQLTQSPSSLSASVGDRVTITCRASQGIGSYLAWYQQKPGKAPKLLIYDASSLESGVPSRFSGSGSGTDFTLTISSLQPEDFATYYCQQYSTSPLTFGQGTKVEIKR
# notes: hIgG4/S241P
# B4: TY24879 (antibody, human IgG4 S228P, kappa, V domains shown)
# VH: B3 VH with A51S, S61N, V102R, Y108V
# VL: DIQLTQSPSSLSASVGDRVTITCAASQDVSTAVAWYQQKPGKAPKLLIYAASSLQSGVPSRFSGSGSGTDFTLTISSLQPEDFATYYCQQSYRSPITFGQGTKVEIKR
# notes: hIgG4/S241P
# B5: TY24876 (antibody, human IgG4 S228P, kappa, V domains shown)
# VH: B3 VH with S30T, S99G, G100P, V102S
# VL: DIQLTQSPSSLSASVGDRVTITCRASQSVSRYLAWYQQKPGKAPKLLIYDASNRATGIPSRFSGSGSGTDFTLTISSLQPEDFATYYCQQYYRSPITFGQGTKVEIKR
# notes: hIgG4/S241P
# B6: TY24884 (antibody, human IgG4 S228P, kappa, V domains shown)
# VH: QVQLVQSGAEVKKPGSSVKVSCKASGFTFSGYAIHWVRQAPGQGLEWIGQIYHSGSTYYNPSLKSRVTITADKSTSTAYMELSSLRSEDTAVYYCARSGYGGYDFDYWGQGTLVTVSS
# VL: DIQLTQSPSSLSASVGDRVTITCRASQSVPRRYLAWYQQKPGKAPKLLIYAASTLQSGVPSRFSGSGSGTDFTLTISSLQPEDFATYYCQQYYRSPITFGQGTKVEIKR
# notes: hIgG4/S241P
# B7: TY24859 (antibody, human IgG4 S228P, kappa, V domains shown)
# VH: EVQLVESGGGLVQPGGSLRLSCAASGFSLSTGGVGVGWIRQAPGKGLEWIGEIYHSGSTYYSPSLKSRVTISRDNSKNTLYLQLNSLRAEDTAVYYCARYGYSYYALDYWGQGTLVTVSS
# VL: DIQLTQSPSSLSASVGDRVTITCSASSSVGYVQWYQQKPGKAPKLLIYDASNLETGVPSRFSGSGSGTDFTLTISSLQPEDFATYYCQQSYTSPRTFGQGTKVEIKR
# notes: hIgG4/S241P
# B8: TY24866 (antibody, human IgG4 S228P, kappa, V domains shown)
# VH: B7 VH with S62P, G101E, Y104S, A106G
# VL: B3 VL with G28D, G30R, S31K, Y32F, Y91S, S92Y, T93R, L96R
# notes: hIgG4/S241P
# B9: TY24877 (antibody, human IgG4 S228P, kappa, V domains shown)
# VH: QVQLVQSGAEVKKPGSSVKVSCKASGYTFTNYGIHWVRQAPGQGLEWIGEIYHSGSTYYSPSLKSRVTITADKSTSTAYMELSSLRSEDTAVYYCARGPLSYYALDYWGQGTLVTVSS
# VL: B3 VL with G28S, G30R, S31R, Y32F, A34N, S92Y, T93R, L96I
# notes: hIgG4/S241P
# B10: TY24860 (antibody, human IgG4 S228P, kappa, V domains shown)
# VH: B7 VH with G32S, G37S, Y100K, S103Y, L107F, Q112P
# VL: B4 VL with A24R, V29I, S30G, T31S, A32F, V33L, I96P
# notes: hIgG4/S241P
# B11: TY21601 (antibody, V domains shown)
# VH: EVQLVESGGGLVQPGGSLRLSCAASGFTFSGYGIHWVRQAPGKGLEWIGWISPSGGDTKYAQKFQGRVTISRDNSKNTLYLQLNSLRAEDTAVYYCARGGTVVYFDYWGQGTLVTVSS
# VL: DIQLTQSPSSLSASVGDRVTITCRASQSIRKYLNWYQQKPGKAPKLLIYAASTLQSGVPSRFSGSGSGTDFTLTISSLQPEDFATYFCSQGTHVPFTFGQGTKVEIK
# notes: also called parental anti-B7H3 mAb; B7H3 IgG
# Target: T2, Human CD28 (ELISAs of Examples 4 and 13) (human, UniProt P10747 19-152, limits assumed)
# Test: ELISA
row,EC50 [nM],Binder
1,36.4,B1

# Target: T3, Recombinant human CD28-Fc (human, UniProt P10747 19-152)
# T3 construct: not shown: Fc part
# Test: ELISA, coated CD28-Fc
row,EC50 [nM],Binder
1,1.06,B2
2,0.87,B3
3,0.9,B4
4,1.02,B5
5,1.02,B6
6,1.34,B7
7,0.57,B8

# Target: T4, Recombinant mouse CD28-Fc (mouse, UniProt P31041 20-150)
# T4 construct: not shown: Fc part
# T4 sequence (P31041 20-150 limits assumed): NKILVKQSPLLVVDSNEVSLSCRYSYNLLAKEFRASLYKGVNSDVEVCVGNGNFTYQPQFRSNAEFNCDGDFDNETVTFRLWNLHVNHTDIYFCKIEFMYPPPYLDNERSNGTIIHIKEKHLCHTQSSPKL
# Test: ELISA, coated CD28-Fc
row,EC50 [nM],Binder
1,> 14.8,B2
2,> 14.8,B3
3,> 1.65,B4
4,3.93,B5
5,> 44.4,B6
6,> 44.4,B7
7,> 1.65,B8

# Target: T5, His-tagged human CD28 protein (human, UniProt P10747 19-152)
# T5 construct: not shown: His tag
# Test: Octet BLI, mAb captured;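 further: Anti-human Fc biosensors captured the antibodies, then His-tagged protein analytes at 100 nM associated for 300 s and dissociated for 300 s, fitted by a 1:1 Langmuir model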
Kd [nM],koff [s⁻¹],kon [M⁻¹ s⁻¹],Binder
4.21,0.000411,97500,B2
2.73,0.000128,46800,B3
7.19,0.000193,26900,B9
< 0.001,< 1e-07,59400,B4
< 0.001,< 1e-07,32500,B5
2.42,0.000166,68400,B6
2.68,0.00019,70800,B7
< 0.001,< 1e-07,58000,B8
6.66,0.000421,63200,B10

# Target: T6, His-tagged human CTLA4 protein (human, UniProt P16410 36-161, limits assumed)
# T6 construct: not shown: His tag
# T6 sequence (P16410 36-161 limits assumed): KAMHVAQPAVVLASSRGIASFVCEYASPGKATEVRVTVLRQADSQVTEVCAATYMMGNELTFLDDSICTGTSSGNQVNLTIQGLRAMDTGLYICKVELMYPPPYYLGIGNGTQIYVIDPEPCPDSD
# Test: Octet BLI, mAb captured;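 further: Anti-human Fc biosensors captured the antibodies, then His-tagged protein analytes at 100 nM associated for 300 s and dissociated for 300 s, fitted by a 1:1 Langmuir model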
Kd [nM],koff [s⁻¹],kon [M⁻¹ s⁻¹],binding result,Binder
0.969,0.00041,423000,–,B2
1.2,0.000454,379000,–,B3
13.2,0.00311,235000,–,B9
7.17,0.00313,437000,–,B4
4.28,0.000585,137000,–,B5
6.36,0.00408,641000,–,B6
6.63,0.00311,469000,–,B7
7.64,0.004,524000,–,B8
–,–,–,no binding (tested: 100 nM CTLA4),B10

# Target: T1, B7H3 on MDA-MB-231 cells
# Test: flow cytometry, MDA-MB-231 cells
# Method: An isotype antibody was included as a negative control.
# MDA-MB-231 cells were cultured and seeded in 96-well plates at 1.0×10⁵ cells/well and incubated with serially diluted test BsAbs for 60 minutes at 4° C. in 2% FBS/RPMI1640 buffer. Next, the cells were washed twice with DPBS and further incubated with secondary APC-anti-human IgG Fe antibody (1:400 dilution) for 30 minutes at 4° C. Finally, the cells were washed twice with DPBS and resuspended in FACS buffer for flow cytometry analysis. For analysis, the MFI values versus concentrations were plotted using FlowJo 10 software (FlowJo LLC) and the data were further fitted with four-parameter non-linear regression to obtain EC₅₀ values by GraphPad Prism version 7 for Windows.
row,EC50 [nM],Binder
1,0.453,B11

# Target: T7, Human CD28 on cells (human, UniProt P10747 19-220)
# T7 construct: Jurkat E6-1 cells, primary human T cells, or transfected HEK293F cells; also called CD28 on Jurkat cells; CD28 on human CD3+ T cells
# Test: flow cytometry, Jurkat cells
# Method: Next, the cells were washed twice with DPBS and further incubated with a APC-anti-human IgG Fc secondary antibody (1 μg/mL, 100 μL/well, Biolegend) for 30 minutes at 4° C. Finally, the cells were washed twice with DPBS and suspended in FACS buffer for flow cytometry analysis. For analysis, the Mean Fluorescence Intensity (MFI) values versus concentrations were plotted using FlowJo 10 software (FlowJo LLC) and the data were further fitted with four-parameter non-linear regression to obtain EC₅₀ values by GraphPad Prism version 7 for Windows, GraphPad Software, La Jolla California USA, www.graphpad.com.
row,EC50 [nM],Binder
1,0.39,B2
2,1.07,B3
3,0.79,B9
4,1.17,B4
5,0.38,B5
6,1.09,B6
7,0.97,B7
8,0.7,B8
9,0.78,B10

# Target: T2, Human CD28 (ELISAs of Examples 4 and 13)
# Test: ELISA, blocking of CD28-CD80
row,IC50 [nM],Binder
1,0.35,B2
2,0.55,B3
3,0.42,B4
4,0.54,B5
5,0.28,B6
6,0.42,B7
7,0.27,B8

# Target: T8, Mouse CD28 on cells (mouse, UniProt P31041 20-218)
# T8 construct: also called CD28 on mouse T cells
# T8 sequence (P31041 20-218 limits assumed): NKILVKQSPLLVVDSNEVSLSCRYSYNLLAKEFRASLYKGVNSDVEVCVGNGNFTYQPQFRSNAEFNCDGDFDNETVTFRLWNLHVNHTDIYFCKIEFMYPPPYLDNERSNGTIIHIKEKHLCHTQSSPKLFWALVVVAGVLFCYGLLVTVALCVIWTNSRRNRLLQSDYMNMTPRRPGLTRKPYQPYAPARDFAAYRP
# Test: flow cytometry on mouse T cells, median fluorescence intensity; drawn table
# Design: AUC: unit not given beside the values
AUC,Max MFI,Binder
549,364,B1
